# Values quoted from earlier work as cited in PMC6803667, “Binding site plasticity in viral PPxY Late domain recognition by the third WW domain of human NEDD4” (Scientific Reports, 2019).
# Biological target: ARRDC3 peptide (Homo sapiens)
# NEDD4 WW3, sequence (P46934 837-876): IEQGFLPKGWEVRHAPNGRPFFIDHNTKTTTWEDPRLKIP
substance,measurement,value
NEDD4 WW3 (from UniProt P46934),Kd,3000 nM
